Source: publication PMC4775355 (Cancer research, 2016)

Biological target: the molecule itself
Test: cross-linking

B1: Flag-PKM2 Y148F mutant (PKM2^Y148F) (enzyme)
chain: not shown
  stoichiometry N: 4
